Results: the Human Domainome abundance scans (Beltran et al. 2025)
± gives the uncertainty stated by the source.

B1: Intersectin-1, residues 1156 to 1213; numbered along this chain, Q15811 (parent)
chain: AVCQVIGMYDYTAQNDDELAFNKGQIINVLNKEDPDWWKGEVNGQVGLFPSNYVKLTT

Variants of: B1
Assay: abundance fitness (aPCA) (normalised: wild type 0, dead -1); higher = more abundant; growth selection in yeast, the domain comes from the species named
Settings: Homo sapiens

In order of falling abundance fitness:
1. AVCQVIGMYDYTAQNDDELAFNKGQIINVLNKEDPDWWKGEVNGQVGFFPSNYVKLTT [L48F]  0.146 ± 0.13
2. AVCQVIGMYDYTAQNDDELAFNKGQIINVLNKEDPDWWKGEVNGQVGIFPSNYVKLTT [L48I]  0.063 ± 0.15
3. AVCQVIGMYDYTAQNDDELAFNKGQIINVLNKEDPDWWKGEVNGQVGWFPSNYVKLTT [L48W]  0.028 ± 0.094
4. AVCQVIGMYDYTAQNDDELAFNKGQIINVLNKEDPDWWKGEVNGQVGLFPSRYVKLTT [N52R]  0.022 ± 0.083
5. AVCQVIGMYDYTAQNDDELAFNKGQIINVLNKEDPDWWKGEVNGQVGKFPSNYVKLTT [L48K]  -0.055 ± 0.11
6. AVCQVIGMYDYTAQNDDELAFNKGQIINVLNKEDPDWWKGEVNGQVGYFPSNYVKLTT [L48Y]  -0.056 ± 0.14
7. AVCQVIGMYDYTAQNDDELAFNKGQIINVLNKEDPDWWKGEVNGQVGLFPSTYVKLTT [N52T]  -0.067 ± 0.13
8. AVCQVIGMYDYTAQNDDELAFNKGQIINVLNKEDPDWWKGEVNGQVGVFPSNYVKLTT [L48V]  -0.068 ± 0.079
9. AVCQVIGMYDYTAQNDDELAFNKGQIINVLNKEDPDWWKGEVNGQVGRFPSNYVKLTT [L48R]  -0.07 ± 0.071
10. AVCQVIGMYDYTAQNDDELAFNKGQIINVLNKEDPDWWKGEVNGQVGLFPSSYVKLTT [N52S]  -0.075 ± 0.097
11. AVCQVIGMYDYTAQNDDELAFNKGQIINVLNKEDPDWWKGEVNGQVGLFPSDYVKLTT [N52D]  -0.079 ± 0.14
12. AVCQVIGMYDYTAQNDDELAFNKGQIINVLNKEDPDWWKGEVNGQVGLFPSMYVKLTT [N52M]  -0.097 ± 0.14
13. AVCQVIGMYDYTAQNDDELAFNKGQIINVLNKEDPDWWKGEVNGQVGMFPSNYVKLTT [L48M]  -0.111 ± 0.12
14. AVCQVIGMYDYTAQNDDELAFNKGQIINVLNKEDPDWWKGEVNGQVGLFPSQYVKLTT [N52Q]  -0.147 ± 0.13
15. AVCQVIGMYDYTAQNDDELAFNKGQIINVLNKEDPDWWKGEVNGQVGNFPSNYVKLTT [L48N]  -0.166 ± 0.2
16. AVCQVIGMYDYTAQNDDELAFNKGQIINVLNKEDPDWWKGEVNGQVGLFPSAYVKLTT [N52A]  -0.183 ± 0.1
17. AVCQVIGMYDYTAQNDDELAFNKGQIINVLNKEDPDWWKGEVNGQVGTFPSNYVKLTT [L48T]  -0.184 ± 0.12
18. AVCQVIGMYDYTAQNDDELAFNKGQIINVLNKEDPDWWKGEVNGQVGLFPSEYVKLTT [N52E]  -0.201 ± 0.11
19. AVCQVIGMYDYTAQNDDELAFNKGQIINVLNKEDPDWWKGEVNGQVGLFPSCYVKLTT [N52C]  -0.251 ± 0.12
20. AVCQVIGMYDYTAQNDDELAFNKGQIINVLNKEDPDWWKGEVNGQVGLFPSGYVKLTT [N52G]  -0.253 ± 0.076
21. AVCQVIGMYDYTAQNDDELAFNKGQIINVLNKEDPDWWKGEVNGQVGSFPSNYVKLTT [L48S]  -0.258 ± 0.086
22. AVCQVIGMYDYTAQNDDELAFNKGQIINVLNKEDPDWWKGEVNGQVGLFRSNYVKLTT [P50R]  -0.323 ± 0.087
23. AVCQVIGMYDYTAQNDDELAFNKGQIINVLNKEDPDWWKGEVNGQVGHFPSNYVKLTT [L48H]  -0.335 ± 0.18
24. AVCQVIGMYDYTAQNDDELAFNKGQIINVLNKEDPDWWKGEVNGQVGLFPSIYVKLTT [N52I]  -0.364 ± 0.24
25. AVCQVIGMYDYTAQNDDELAFNKGQIINVLNKEDPDWWKGEVNGQVGLFPSVYVKLTT [N52V]  -0.439 ± 0.11
26. AVCQVIGMYDYTAQNDDELAFNKGQIINVLNKEDPDWWKGEVNGQVGLFPSHYVKLTT [N52H]  -0.469 ± 0.15
27. AVCQVIGMYDYTAQNDDELAFNKGQIINVLNKEDPDWWKGEVNGQVGQFPSNYVKLTT [L48Q]  -0.479 ± 0.15
28. AVCQVIGMYDYTAQNDDELAFNKGQIINVLNKEDPDWWKGEVNGQVGGFPSNYVKLTT [L48G]  -0.544 ± 0.085
29. AVCQVIGMYDYTAQNDDELAFNKGQIINVLNKEDPDWWKGEVNGQVGLFPSPYVKLTT [N52P]  -0.544 ± 0.18
30. AVCQVIGMYDYTAQNDDELAFNKGQIINVLNKEDPDWWKGEVNGQVGLFPSLYVKLTT [N52L]  -0.561 ± 0.12
31. AVCQVIGMYDYTAQNDDELAFNKGQIINVLNKEDPDWWKGEVNGQVGLFCSNYVKLTT [P50C]  -0.615 ± 0.19
32. AVCQVIGMYDYTAQNDDELAFNKGQIINVLNKEDPDWWKGEVNGQVGLFNSNYVKLTT [P50N]  -0.71 ± 0.25
33. AVCQVIGMYDYTAQNDDELAFNKGQIINVLNKEDPDWWKGEVNGQVGDFPSNYVKLTT [L48D]  -0.761 ± 0.22
34. AVCQVIGMYDYTAQNDDELAFNKGQIINVLNKEDPDWWKGEVNGQVGLFTSNYVKLTT [P50T]  -0.773 ± 0.19
35. AVCQVIGMYDYTAQNDDELAFNKGQIINVLNKEDPDWWKGEVNGQVGEFPSNYVKLTT [L48E]  -0.784 ± 0.14
36. AVCQVIGMYDYTAQNDDELAFNKGQIINVLNKEDPDWWKGEVNGQVGLFPSFYVKLTT [N52F]  -0.784 ± 0.33
37. AVCQVIGMYDYTAQNDDELAFNKGQIINVLNKEDPDWWKGEVNGQVRLFPSNYVKLTT [G47R]  -0.786 ± 0.098
38. AVCQVIGMYDYTAQNDDELAFNKGQIINVLNKEDPDWWKGEVNGQVVLFPSNYVKLTT [G47V]  -0.796 ± 0.11
39. AVCQVIGMYDYTAQNDDELAFNKGQIINVLNKEDPDWWKGEVNGQVGLFMSNYVKLTT [P50M]  -0.799 ± 0.22
40. AVCQVIGMYDYTAQNDDELAFNKGQIINVLNKEDPDWWKGEVNGQVWLFPSNYVKLTT [G47W]  -0.802 ± 0.16
41. AVCQVIGMYDYTAQNDDELAFNKGQIINVLNKEDPDWWKGEVNGQVSLFPSNYVKLTT [G47S]  -0.828 ± 0.12
42. AVCQVIGMYDYTAQNDDELAFNKGQIINVLNKEDPDWWKGEVNGQVGPFPSNYVKLTT [L48P]  -0.886 ± 0.17
43. AVCQVIGMYDYTAQNDDELAFNKGQIINVLNKEDPDWWKGEVNGQVYLFPSNYVKLTT [G47Y]  -0.908 ± 0.25
44. AVCQVIGMYDYTAQNDDELAFNKGQIINVLNKEDPDWWKGEVNGQVTLFPSNYVKLTT [G47T]  -0.941 ± 0.18
45. AVCQVIGMYDYTAQNDDELAFNKGQIINVLNKEDPDWWKGEVNGQVGLFSSNYVKLTT [P50S]  -0.954 ± 0.14
